This is an account of results in US20260069689A1 (Regeneron, published 2026).

This experiment addresses SARS-COV-2 RBD extracellular domain expressed with a C-terminal myc-myc-hexahistidine tag (SARS-CoV-2). Kind of experiment: SPR (Biacore), mAb captured by anti-human Fc, RBD-mmH in solution, 25 C.

B1: mAb15159 (antibody, V domains shown)
VH: EVQLVESGGGLVQPGGSLRLSCAASGITVSSNYMTWVRQAPGKGLEWVSLIYSGGSTFYADSVRGRFTISRDNSKNTLYLQMNSLRAEDTAVYYCARDLVVYGMDVWGQGTTVTVSS
VL: DIQLTQSPSSLSASVGDRVTITCRASQGISSYLAWYQQKPGKAPKLLIYAASTLQSGVPSRFSGSGSGTDFTLTISSLQPEDFATYYCQHLNSDPHTFGQGTKLEIKR
Molecule B1 had a Kd of 2.66 nM, a koff of 0.00013 s⁻¹, a kon of 48900 M⁻¹ s⁻¹ and a t½ of 88.8 min.

B2: mAb14312 (antibody, V domains shown)
VH: EVQLVESGGGLVQPGGSLRLSCAASGFTVSRSYMTWVRQAPGKGLEWVSVIFTGGRTDHADSVKGRFTISRHNSKNTLYLQMNSLRTEDTAVYYCARVAIVGATGAFDIWGQGTMVTVSS
VL: QSVLTQPPSVSGAPGQRVTISCTGSSSNIGAGDDVHWYQQLPGTAPKLLIYGNSNRPSGVPDRFSGSKSGTSASLAITGLQAEDEADYYCQSYDSSLSGSVVFGGGTKLTVLG
Regarding B2, binding was put at a Kd of 0.606 nM, the off-rate constant (koff) is 0.000929 s⁻¹, the kon stood at 1.53e+06 M⁻¹ s⁻¹ and the t½ amounted to 12.4 min.

B3: mAb14285 (antibody, V domains shown)
VH: QVQLVQSGAEVKKPGASVKVSCKASGYTFTGYFIHWVRQAPGQGLEWMGWISPISGGTNYAQKFQGRVTVTRDTSITTAYMELSRLTSDDTAVYHCAREGGTWKGDFDYWGQGTLVTVSS
VL: QSALTQPASVSGSPGQSITISCTGTSSDVESYNLVSWYQQHPGKAPKLMIYEGSKRPSGVSNRFSGSKSGNTASLTISGLQAEDEADYYCSSYAGSSTWVFGGGTKLTVLG
With B3, binding was put at a Kd of 11.7 nM, the koff is 0.0211 s⁻¹, the on-rate constant (kon) turned out to be 1.8e+06 M⁻¹ s⁻¹ and the t½ was 0.5 min.

B4: mAb15156 (antibody, V domains shown)
VH: QLQLQESGPGLVKSSETLSLTCTVSASITGSTYYWGWIRQPPGKGLEWIGSIYYSGTTYYKASLKSRVTISVDTSKNQFSLKLTSVTVADTAVYYCVSHLLGNYHKYGMDVWGQGTTVTVSS
VL: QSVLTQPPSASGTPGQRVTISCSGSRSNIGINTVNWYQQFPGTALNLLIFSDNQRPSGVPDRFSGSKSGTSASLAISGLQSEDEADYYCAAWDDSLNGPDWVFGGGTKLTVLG
With B4, the equilibrium dissociation constant (Kd) was found to be 4.18 nM, the koff is 0.00121 s⁻¹, the association rate constant (kon) came out at 289000 M⁻¹ s⁻¹ and the t½ amounted to 9.6 min.

B5: mAb15161 (antibody, V domains shown)
VH: EVQLVESGGGLVQPGGSLRLSCAASGFTFSSYEMNWVRQAPGKGLEWVSYISSSGSILYYADSVKGRFTASRDNAKNSLYLQMNSLRAEDTGVYYCARREYQLLRPFEFWGQGTLVTVSS
VL: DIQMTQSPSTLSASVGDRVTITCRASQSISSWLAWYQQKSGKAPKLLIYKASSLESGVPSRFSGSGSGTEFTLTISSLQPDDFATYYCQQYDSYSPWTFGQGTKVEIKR
In turn, B5 showed a dissociation constant Kd of 1.35 nM, a koff of 0.000234 s⁻¹, an association rate constant (kon) of 173000 M⁻¹ s⁻¹ and a t½ of 49.3 min.

B6: mAb15162 (antibody, V domains shown)
VH: EVQLVETGGGLIQPGGSLRLSCAASEFIVSRNYMSWVRQAPGKGLEWVSLIYSGGSTYYADSVKGRFTISRDNSKNILYLQMNSLRAEDTAVYYCARDRGGISDYWGQGTLVTVSS
VL: DIQMTQSPSSLSASVGDRVTITCQASQDINKYLNWFQQKPGKAPKLLIYDASNLETGVPSRFSGSGSGTDFTFTISSLQPEDIATYYCQQYDNLPRTFGQGTKLEIKR
For B6, binding was characterised by a dissociation constant (Kd) of 7.3 nM, the koff is 0.00085 s⁻¹, the kon was 116000 M⁻¹ s⁻¹ and the t½ came to 13.6 min.

B7: mAb14280 (antibody, V domains shown)
VH: QVQLVQSGAEVKKPGASVRVSCKASGYTFTGNYIHWVRQAPGQGLEWMAWINPNSGGKNYAQKFQGRVTLTRDTSVNTAYMELSRLRSDDTAMYYCARDVNYNILTGPGGLWGQGTLVTVSS
VL: QSALTQPPSASGSPGQSVTISCTGTSSDVGGYNFVSWYQQHPGKAPKLMIYEVSKRPSGVPDRFSGSKSGNTASLTVSGLQAEDEADYYCSSYAGSNNFVFGTGTKVTVLG
With B7, the equilibrium dissociation constant (Kd) is 15.4 nM, the dissociation rate constant (koff) is 0.0255 s⁻¹, the association rate constant (kon) turned out to be 1.66e+06 M⁻¹ s⁻¹ and the t½ was 0.5 min.

B8: mAb15163 (antibody, V domains shown)
VH: EVQLVETGGGLIQPGESLRLSCAASGFIVSTNYMNWVRQAPGKGLEWVSVIYRGGSTYYADSVKGRFTISRDNSKNTLFLQMNSLRAEDTAVYYCARGHEDFDYDTPASGAFDIWGQGTMVTVSS
VL: QSALTQPPSASGSPGQSVTISCTGTSSDVGGHNYVSWYQQHPGKAPKVMIYEVSKRPSGVPDRFSGSKSGNTASLTVSGLQAEDEADYYCSSYAGSNKFVFGTGTKVTVLG
As to B8, the Kd was found to be 0.0779 nM, the off-rate constant (koff) stood at 1.67e-05 s⁻¹, the kon stood at 218000 M⁻¹ s⁻¹ and the t½ was 693 min.

B9: mAb14256 (antibody, V domains shown)
VH: QVQLQESGPGLVKPSETLSLTCTVSGGSISSHYWSWIRQPPGKGLEWIGYIYYSGSSNYNPSLKSRVTISVDTSKNQFSLKLNSVTAADTAVYYCARHYDILTGFDWFDPWGQGTLVTVSS
VL: QSVLTQPPSVSGAPGQRVTISCTGSSSNIGTHYDVHWYQQLPGTAPKLLIYGNSNRPSGVPDRFSGSKSGTSASLAITGLQAEDEADYYCQSFDNSLTAPYVFGTGTKVTVLG
B9 had a Kd of 8.32 nM, an off-rate (koff) of 0.00927 s⁻¹, a kon of 1.11e+06 M⁻¹ s⁻¹ and a t½ of 1.2 min.

B10: mAb14234 (antibody, V domains shown)
VH: QVQLVESGGGVVQPGRSLRLSCAASGFTFSSYGIHWVRQAPGKGLEWVAIIWYDGSEKYYADSVKGRFTISRDNSKNTLFLQMNSLEAEDTAVYYCARGPDLLTGYYNYFYYGMDVWGQGTTVTVSS
VL: QSVLTQPPSVSGAPGQRVTISCTGSSSNIGIGYDVHWYQQLPGTVPKLLIYGNTNRPSGVPDRFSGSKSGTSASLAITGLQAEDEADYYCQSYDSSLSSYVFGTGTKVTVLG
Regarding B10, the Kd is 20.5 nM, the koff worked out at 0.0113 s⁻¹, the association rate constant (kon) is 550000 M⁻¹ s⁻¹ and the t½ is 1 min.

B11: mAb14292 (antibody, V domains shown)
VH: EVQLVESGGGLVQPGGSLRLSCVASGFAFSTYEMNWVRQAPGKGLEWVSYISSSGSTIYYADSVKGRLTISRDNVKNSLYLQMNSLRVEDTAIYYCARDAIRNNDILTDPATFDPWGQGTLVTVSS
VL: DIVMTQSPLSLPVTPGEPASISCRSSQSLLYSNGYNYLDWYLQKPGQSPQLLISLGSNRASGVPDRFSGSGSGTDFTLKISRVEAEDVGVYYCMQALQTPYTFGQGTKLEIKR
Molecule B11 displayed a Kd of 40.9 nM, a koff of 0.0171 s⁻¹, a kon of 417000 M⁻¹ s⁻¹ and a t½ of 0.7 min.

B12: mAb15158 (antibody, V domains shown)
VH: EVQLVESGGGLVQPGGSLRLSCAASGFSFSSNWMSWVRQAPGKGLEWVGNINQDGSEKYYVDSVEGRFTISRDNAKKSLYLQMNSLRAEDTAVYYCARDLGVLWFGDFVDWGQGALVTVSS
VL: DIQMTQSPSSLSASVGDRVTITCRASQAISNSLAWYQQKPGKAPKLLLYAASTLESGVPSRFSGSGSGTDYTLTISSLQPEDFATYYCLQYYGSPRTFGQGTKVEIKR
B12 yielded a Kd of 0.779 nM, an off-rate constant (koff) of 8.12e-05 s⁻¹, a kon of 104000 M⁻¹ s⁻¹ and a t½ of 142 min.

B13: mAb15157 (antibody, V domains shown)
VH: EVQLVESGGALVQPGGSLRLSCAASGFPFTIYAMTWVRQAPGKGLEWVSVITGSGDSTYYADSVKGRFTISRDNSKNTLYLQMNSLRAEDTAVYYCVKTGEGFFYYYYGMDVWGQGTTVTVSS
VL: QSVLTQPPSVSAAPGQKVTISCSGSSSNIGNSYISWYQQLPGTAPKLLIYVNNKRPSGIPDRFSGSKSGTSATLGITGLQTGDEADYYCGTWDSSLSAGVFGSGTKVTVLG
In the case of B13, the affinity, expressed as Kd, was 4.49 nM; the koff was determined as 0.00125 s⁻¹; the association rate constant (kon) was 278000 M⁻¹ s⁻¹; the t½ is 9.3 min.

By Kd is commonly meant the equilibrium constant for the complex coming apart. Lower therefore signals higher affinity. By koff is commonly meant the first-order rate constant of dissociation. Read a low koff as a long-lived complex. Usually kon stands for the second-order rate constant of association. Low readings indicate slower complex formation, high ones faster complex formation. The t½ is the time in which the quantity being followed falls by half. The low end stands for fast loss, the high end for slow loss.
